From article PMC9630130, “Molecular interactions of FG nucleoporin repeats at high resolution” (Nature Chemistry, 2022) come the findings set out here.

Data set [1] deals with the molecule itself. Put plainly: time-dependent loss of NMR signal (self-association/aggregation); synthetic Nup98 peptides alone in solution; propensity = difference between the NMR signal expected for the peptide concentration and that observed after 1 day of incubation at 5 °C (Fig. 2c); kinetics of 95-124 and its mutants in Supplementary Fig. 5.
Data set [2] concerns the molecule itself. The data set is described as follows: cryo-EM structure; amyloid fibrils of Nup98^FG85: peptide dissolved in pure water at 1.5 mM, incubated at 25 °C for 1 h; helical reconstruction of four polymorphs (pm1-pm4).
Data set [3] concerns the molecule itself. The data set is described as follows: loss of 1D 1H NMR signal on change of pH; Nup98^FG (200 μM) or Nup98^FG85 (100 μM) in 50 mM sodium phosphate, 1 mM TCEP, 0.01% NaN3, 5% D2O; pH 3, adjusted to pH 7, then back to pH 3 and 30 min at 65 °C.
Data set [4] concerns the molecule itself. The data set is described as follows: aggregation of NMR assignment samples; 2 mM peptide in 50 mM sodium phosphate, 0.01% NaN3, 5% D2O, pH 6.8; NMR at 5 °C.

B1: Nup98(95–124) peptide (peptide, UniProt P52948 95-124, looked up)
peptide: Ac-ASTGTSLFSSQNNAFAQNKPTGFGNFGTST-NH2
notes: source: synthetic peptide (solid-phase synthesis, Genscript)
With B1, the binding result in data set [1] is recorded as “binds”.

B2: Nup98(95–124) peptide with F117 and F120 replaced by serine (peptide, UniProt P52948 95-124, looked up)
peptide: ASTGTSLFSSQNNAFAQNKPTGSGNSGTST
notes: also called phenylalanine-to-serine mutant peptide; source: synthetic peptide (solid-phase synthesis, Genscript)
As for B2, in data set [1], the binding result was “binds”.

B3: Nup98(95–124) peptide with Q105 and Q111 replaced by serine (peptide, UniProt P52948 95-124, looked up)
peptide: ASTGTSLFSSSNNAFASNKPTGFGNFGTST
notes: also called glutamine-to-serine mutant peptide; source: synthetic peptide (solid-phase synthesis, Genscript)
Take B3: in data set [1], the binding result is listed as “binds”.

B4: Nup98^FG85 (residues 85–124 of human Nup98) (peptide, UniProt P52948 85-124, looked up)
peptide: TGTANTLFGTASTGTSLFSSQNNAFAQNKPTGFGNFGTST
notes: It forms amyloid fibrils of indefinite length with 3 (pm1) or 2 (pm2-pm4) protofilaments; also called Nup98^FG85 segment; source: synthetic peptide (solid-phase synthesis, Genscript)
For B4, in data set [2], the binding result is recorded as “binds”.

B5: FG-repeat domain of human Nup98 (Nup98^FG, residues 1–384) (domain or fragment, UniProt P52948 1-384, looked up)
chain: MFNKSFGTPFGGGTGGFGTTSTFGQNTGFGTTSGGAFGTSAFGSSNNTGGLFGNSQTKPGGLFGTSSFSQPATSTSTGFGFGTSTGTANTLFGTASTGTSLFSSQNNAFAQNKPTGFGNFGTSTSSGGLFGTTNTTSNPFGSTSGSLFGPSSFTAAPTGTTIKFNPPTGTDTMVKAGVSTNISTKHQCITAMKEYESKSLEELRLEDYQANRKGPQNQVGAGTTTGLFGSSPATSSATGLFSSSTTNSGFAYGQNKTAFGTSTTGFGTNPGGLFGQQNQQTTSLFSKPFGQATTTQNTGFSFGNTSTIGQPSTNTMGLFGVTQASQPGGLFGTATNTSTGTAFGTGTGLFGQTNTGFGAVGSTLFGNNKLTTFGSSTTSAPSFG
notes: human nucleoporin 98 (Nup98), amino-terminal 384 residues (FG-repeat domain), in pET28a between NheI and XhoI; The methods describe no step that cleaves the His tag; also called 384-residue Nup98^FG domain; source: E. coli BL21(DE3), purified from the pellet in urea (Ni-NTA, two SEC steps)
As for B5, the binding result in data set [3] is on record as “binds”.

B6: Nup98(298–327) peptide (peptide, UniProt P52948 298-327, looked up)
peptide: Ac-TGFSFGNTSTIGQPSTNTMGLFGVTQASQP-NH2
notes: human nucleoporin 98 (Nup98), residues 298-327; source: synthetic peptide (solid-phase synthesis, Genscript)
Turning to B6, the binding result in data set [4] is “binds”.

B7: Nup98(345–384) peptide (peptide, UniProt P52948 345-384, looked up)
peptide: Ac-TGTGLFGQTNTGFGAVGSTLFGNNKLTTFGSSTTSAPSFG-NH2
notes: human nucleoporin 98 (Nup98), residues 345-384; source: synthetic peptide (solid-phase synthesis, Genscript)
B7: the binding result in data set [4] is “binds”.
